Experimental findings from patent publication US20150098945A1 (Daiichi Sankyo, published 2015) are described below.

In test [1] the target is T1, rat ROBO4 (pCI-raROBO4-transfected HEK293 cells) (rat, UniProt Q80W87 38-949 at identity 0.93)).
T1 chain: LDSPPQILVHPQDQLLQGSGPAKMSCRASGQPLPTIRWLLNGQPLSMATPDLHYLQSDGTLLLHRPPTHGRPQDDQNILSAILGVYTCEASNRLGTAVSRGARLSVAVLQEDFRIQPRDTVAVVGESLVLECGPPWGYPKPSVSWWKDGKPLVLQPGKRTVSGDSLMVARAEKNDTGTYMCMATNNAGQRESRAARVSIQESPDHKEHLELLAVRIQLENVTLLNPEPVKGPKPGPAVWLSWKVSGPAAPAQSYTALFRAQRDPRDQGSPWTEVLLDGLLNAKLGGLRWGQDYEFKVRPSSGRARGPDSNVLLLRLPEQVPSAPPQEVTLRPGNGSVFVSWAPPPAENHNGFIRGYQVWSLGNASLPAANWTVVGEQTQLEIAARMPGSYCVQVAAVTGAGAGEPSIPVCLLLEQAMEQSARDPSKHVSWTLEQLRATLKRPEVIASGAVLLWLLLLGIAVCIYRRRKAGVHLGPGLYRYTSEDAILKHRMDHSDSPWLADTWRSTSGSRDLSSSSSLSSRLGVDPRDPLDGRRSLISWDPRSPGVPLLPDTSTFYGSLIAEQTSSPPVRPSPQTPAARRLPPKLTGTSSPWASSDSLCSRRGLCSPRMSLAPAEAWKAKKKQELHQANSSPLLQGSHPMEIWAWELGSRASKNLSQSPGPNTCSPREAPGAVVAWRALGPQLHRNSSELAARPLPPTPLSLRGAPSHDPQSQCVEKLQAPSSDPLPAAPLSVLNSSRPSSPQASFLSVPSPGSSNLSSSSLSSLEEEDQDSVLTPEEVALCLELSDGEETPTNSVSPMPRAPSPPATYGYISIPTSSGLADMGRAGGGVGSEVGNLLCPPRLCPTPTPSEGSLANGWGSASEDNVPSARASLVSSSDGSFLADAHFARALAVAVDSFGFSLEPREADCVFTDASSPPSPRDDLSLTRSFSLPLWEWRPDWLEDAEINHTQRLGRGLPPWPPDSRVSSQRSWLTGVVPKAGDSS
Kind of test: flow cytometry (FC500), HEK293 cells transfected with pCI-raROBO4, FITC goat anti-human IgG Fc; control histogram IgG (human IgG).

Test [2] deals with T2, N-terminal FLAG-tagged human ROBO4 extracellular region/domain deletion variant hROBO4-341 (human, UniProt Q8WZ75 341-1007).
T2 construct: On transfected HEK293 cells; also called pCI-FLAG-hROBO4-341; pCI-hROBO4-341
T2 sequence: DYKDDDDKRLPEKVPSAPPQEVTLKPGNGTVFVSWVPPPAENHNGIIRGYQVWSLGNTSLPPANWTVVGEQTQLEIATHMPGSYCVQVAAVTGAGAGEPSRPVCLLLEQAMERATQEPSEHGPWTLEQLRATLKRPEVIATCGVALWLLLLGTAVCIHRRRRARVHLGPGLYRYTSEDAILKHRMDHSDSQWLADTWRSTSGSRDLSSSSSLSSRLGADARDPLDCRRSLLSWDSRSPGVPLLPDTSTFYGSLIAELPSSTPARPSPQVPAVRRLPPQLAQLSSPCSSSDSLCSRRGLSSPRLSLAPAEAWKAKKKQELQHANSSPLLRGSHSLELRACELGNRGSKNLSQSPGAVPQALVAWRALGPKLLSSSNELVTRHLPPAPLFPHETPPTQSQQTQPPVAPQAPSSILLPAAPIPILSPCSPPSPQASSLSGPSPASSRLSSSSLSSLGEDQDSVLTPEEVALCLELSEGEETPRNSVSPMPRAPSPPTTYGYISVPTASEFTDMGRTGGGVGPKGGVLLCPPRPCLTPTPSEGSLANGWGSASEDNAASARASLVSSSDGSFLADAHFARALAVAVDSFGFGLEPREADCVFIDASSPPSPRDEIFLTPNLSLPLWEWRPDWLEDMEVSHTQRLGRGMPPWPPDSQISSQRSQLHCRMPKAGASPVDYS
Kind of test: flow cytometry, HEK293 cells transfected with pCI-FLAG-hROBO4-341, anti-mouse IgG FITC; control histogram IgG (Mouse IgG2a). How it is done: HEK293 cells were inoculated at a concentration of 1.5×10⁶ cells/dish to a 60-mm dish (manufactured by Corning Inc.) and cultured overnight in a DMEM medium containing 10% FBS at 37° C. under 5% CO₂ conditions. […] On the next day, the expression vector-transfected cells were treated with TrypLE Express (manufactured by Life Technologies Corp.), washed with PBS containing 5% FBS, and then suspended in PBS containing 5% FBS. The obtained cell suspension was used in flow cytometry analysis.
Each cell suspension prepared in 4)-5-1 was centrifuged, and the supernatant was removed. Then, MAb1, a positive control Monoclonal ANTI-FLAG M2 antibody produced in mouse, or a negative control Mouse IgG2a was added at a concentration of 10 μg/mL to 2×10⁵ expression vector-transfected cells, and the resulting suspension was left standing at 4° C. for 1 hour. The cells were washed once with PBS containing 5% FBS. Then, Anti-Mouse IgG FITC conjugate diluted 1000-fold with PBS containing 5% FBS was added thereto, and the resulting suspension was left standing at 4° C. for 1 hour. […] Data was analyzed using Flowjo. The histogram of FITC fluorescence intensity was prepared. The antibody was determined to bind to a cell when the histogram of MAb1 was shifted to a stronger fluorescence intensity region compared with the histogram of the negative control Mouse IgG2a. […]

B1: humanized MAb1 antibody H-1143 (antibody, human IgG2, kappa, V domains shown)
VH: EVQLVESGGGLVQPGGSLRLSCAASGFTFSTYAMSWVRQAPGKGLEWVATISQGGTYTYYPDSVKGRFTISRDNAKNTLYLQMNSLRAEDTAVYYCARLIYYDYLDYWGQGTLVTVSS
VL: DIVMTQSPLSLPVTLGEPASISCRSSQSLENENKNLYLNWYLQKPGQSPQLLIYRVSNRFSGVPDRFSGSGSGTDFTLKISRVEAEDVGVYYCLQVTHVPWTFGPGTKVDIKR
notes: Human IgG2 / kappa constant regions; also called hMAb1-H2-type heavy chain + hMAb1-L2-type light chain
Consider B1, for which, in test [1], the binding result is “no binding (tested: 10 µg/mL)”.

B2: anti-ROBO4 mouse monoclonal antibody MAb1 (antibody, mouse IgG1, V domains shown)
VH: EVQLVESGGGLVKPGGSLKLSCAASGFTFSTYAMSWVRQTPEKRLEWVATISNGGTYTYYPDSVKGRFTISRDNAENTLYLQMSSLRSEDTAMYFCARLIYYDYLDYWGHGTTLTVSS
VL: DAVMTQTPLSLPVSLGDQASISCRSSQSLENSNGNTYLNWYFQKPGQSPQLLIYRVSNRFSGVLDRFSGSGSGTDFTLKISRVEAEDFGVYFCLQVTHVPWTFGGGTKLEIKR
notes: Mouse IgG1 (gamma1), kappa light chain, purified from hybridoma supernatant; also called parent antibody MAb1
Turning to B2, the binding result in test [2] is reported as “no binding (tested: 10 µg/mL)”.
